Experiment [1] relates to fragment of MORT-1 corresponding to residues 1-117. Kind of experiment: Two-hybrid test (FIG. 1), binding to MORT-1 residues 1-117. The text has this: (§1) To isolate proteins interacting with the intracellular domain of the FAS-R, the yeast two-hybrid system was used (Fields and Song, 1989). […] In this system, the genes for the candidate interacting proteins are cloned into separate expression vectors. In one expression vector, the sequence of the one candidate protein is cloned in phase with the sequence of the GAL4 DNA-binding domain to generate a hybrid protein with the GAL4 DNA-binding-domain, and in the other vector, the sequence of the second candidate protein is cloned in phase with the sequence of the GAL4 activation domain to generate a hybrid protein with the GAL4-activation domain. The two hybrid vectors are then co-transformed into a yeast host strain having a lacZ or HIS3 reporter gene under the control of upstream GAL4 binding sites. Only those transformed host cells (cotransformants) in which the two hybrid proteins are expressed and are capable of interacting with each other, will be capable of expressing the reporter gene. In the case of the lacZ reporter gene, host cells expressing this gene will become blue in color when X-gal is added to the cultures. […]
(§2) In FIG. 1, there is depicted the interaction of the proteins encoded by the Gal4 DNA binding domain and activation-domain constructs (pGBT9 and pGAD-GH) within transfected SFY526 yeasts as assessed by β-galactosidase expression filter assay. […]

Experiment [2] addresses T1, FAS-IC (Homo sapiens, UniProt P25445).
T1 construct: the FAS-IC extends-from amino acid residues 175-319 of the intact FAS-R; expressed in transfected cells; host or cells: SFY526 yeast
T1 sequence (P25445 191-335): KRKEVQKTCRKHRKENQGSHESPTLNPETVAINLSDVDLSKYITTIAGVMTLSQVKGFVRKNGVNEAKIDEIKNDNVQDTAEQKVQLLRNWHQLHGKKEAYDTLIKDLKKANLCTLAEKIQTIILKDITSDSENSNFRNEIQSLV
Kind of experiment: Two-hybrid test (FIG. 1), binding of MORT-1 fragments to FAS-IC.
Description: as §1, §2

Experiment [3] deals with T2, MORT-1 (Homo sapiens, UniProt Q13158, G32V).
T2 sequence (Q13158 with tags, fused parts or gaps G32V): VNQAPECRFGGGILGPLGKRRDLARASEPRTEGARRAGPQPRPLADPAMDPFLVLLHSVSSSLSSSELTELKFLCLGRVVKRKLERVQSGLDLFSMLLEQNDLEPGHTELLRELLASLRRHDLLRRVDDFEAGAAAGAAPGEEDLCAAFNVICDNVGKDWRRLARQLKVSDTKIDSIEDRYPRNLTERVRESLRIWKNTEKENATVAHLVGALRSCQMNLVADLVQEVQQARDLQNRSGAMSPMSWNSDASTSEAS
Nature of the experiment: Two-hybrid test (FIG. 1), binding to full-length MORT-1. On the set-up: expressed in transfected cells; host or cells: SFY526 yeast. The text has this: To isolate proteins interacting with the intracellular domain of the FAS-R, the yeast two-hybrid system was used (Fields and Song, 1989). […] In this system, the genes for the candidate interacting proteins are cloned into separate expression vectors. In one expression vector, the sequence of the one candidate protein is cloned in phase with the sequence of the GAL4 DNA-binding domain to generate a hybrid protein with the GAL4 DNA-binding-domain, and in the other vector, the sequence of the second candidate protein is cloned in phase with the sequence of the GAL4 activation domain to generate a hybrid protein with the GAL4-activation domain. The two hybrid vectors are then co-transformed into a yeast host strain having a lacZ or HIS3 reporter gene under the control of upstream GAL4 binding sites. Only those transformed host cells (cotransformants) in which the two hybrid proteins are expressed and are capable of interacting with each other, will be capable of expressing the reporter gene. In the case of the lacZ reporter gene, host cells expressing this gene will become blue in color when X-gal is added to the cultures.
(b) retransforming the plasmid DNA and original FAS-IC hybrid plasmid and control plasmids described in (a) into yeast host cells of strain SFY526 and determining the LACZ^+ activity (effectivity of β-gal formation, i.e., blue color formation).
In FIG. 1, there is depicted the interaction of the proteins encoded by the Gal4 DNA binding domain and activation-domain constructs (pGBT9 and pGAD-GH) within transfected SFY526 yeasts as assessed by β-galactosidase expression filter assay. The DNA-binding-domain constructs included four constructs of the human Fas-IC, four constructs of the mouse Fas-IC including two full-length constructs having […] or Ile to Ala replacement mutations at position 225 (I225N and I225A, respectively), and three MORT-1 constructs, all of which are shown schematically on the left hand side of FIG. 1. […]

Experiment [4] concerns FAS-R mediated cell death in HeLa cells. Kind of experiment: Anti-FAS-R antibody (CH-11) induced death of HeLa cells co-expressing FAS-R, neutral-red uptake. The class given is cell-based. The following applies: co-expression with human FAS-R in HeLa HtTA-1; CH-11 antibody plus 10 μg/ml cycloheximide. The text has this: In another set of experiments to analyze the region of the MORT-1 protein involved in the binding to the FAS-IC, the following proteins were expressed transiently in HeLa cells that contain a tetracycline-controlled transactivator (HtTA-1), using a tetracycline-controlled expression vector (pUHD10-3): Human FAS-R alone; Human FAS-R as well as the N-terminal part of MORT-1 (amino acids 1-117, the “MORT-1 head”); Human FAS-R as well as the C-terminal part of MORT-1, which contains its ‘death domain’ homology region (amino acids 130-245, the “MORT-1 DD”); FLAG-55.11 (amino acids 309-900 of protein 55.11 fused at the N-terminus to the FLAG octapeptide, the protein 55.11 being a p55-IC-specific binding protein. Twelve hours after transfection, the cells were trypsinized and re-seeded at a concentration of 30,000 cells/well. After 24 hrs further incubation, the cells were treated for 6 hrs with a monoclonal antibody against the extracellular domain of FAS-R (monoclonal antibody CH-11, Oncor, Gaithersburg, Md., USA) at various concentrations (0.001-10 μg/ml monoclonal antibody), in the presence of 10 μg/ml cycloheximide. Cell viability was then determined by the neutral-red uptake assay and the results were presented in terms of % viable cells as compared to cells that had been incubated with cycloheximide alone (in the absence of anti-FAS-R monoclonal antibody CH-11). […]

This note sets out measurements from patent US7799901B2, “Modulators of the function of FAS receptors and other proteins” (Yeda Research and Development Co. Ltd., priority 1995, dated 2010).

B1: fragment of MORT-1 corresponding to residues 1-117: N-terminal part of MORT-1, amino acids 1-117 (protein)
chain: VNQAPECRFGGGILGPLGKRRDLARASEPRTEGARRAGPQPRPLADPAMDPFLVLLHSVSSSLSSSELTELKFLCLGRVVKRKLERVQSGLDLFSMLLEQNDLEPGHTELLRELLAS
B1: the “binding to MORT-1 residues 1-117 in two-hybrid test” value in experiment [1] is reported as “does not bind”. Besides, the “binding to FAS-IC / FAS-R in two-hybrid test” value in experiment [2] was “does not bind”. For the same molecule, the “binding to full-length MORT-1 in two-hybrid test” value in experiment [3] is “binds”. In addition, the “effect on FAS-induced (FAS-R mediated) cell death” value in experiment [4] is “does not interfere”.
